Assay results published in US20200306367A1 (University of Washington, published 2020).

B1: G28-8LH-HBcAgY132A-His (scFv)
chain: DIQMTQSPASLSASVGETVTITCRASEKIYSYLAWYQQKQGKSPQLLVYNAKTLAEGVPSRFSVSGSGTQFSLRINSLQPEDFGTYYCQHHFGSPRTFGGGTKLEIKDLGGGGSGGGGSGGGGSGGGGSTGEVQLQQSGPELVKPGASMKISCKASGYSFTGYTMNWVKQSHGKTLEWIGLINPYNGVTSYNQKFKDKATLTVDKSSSTAYMELLSLTSEDSAIYYCARDYNYDYFDYWGQGTTLTVSSGGGGSGGGGSGGGGSGGGGSMDIDPYKEFGASVELLSFLPSDFFPSIRDLLDTASALYREALESPEHCSPHHTALRQAILCWGELMNLATWVGSNLEDPASRELVVSYVNVNMGLKIRQLLWFHISCLTFGRETVLEYLVSFGVWIRTPPAARPPNAPILSTLPETTVVHHHHHH
notes: Anti-human CD180 scFv (VL-VH) fused to HBcAg(1-149) Y132A and a 6xHis tag, made in CHO cells and purified on nickel resin; the tested protein carried it, since it was detected with anti-6xHis; also called aCD180-HBVAg; HBcAg-CD180
B2: G28-8 anti-human CD180 monoclonal antibody (antibody, V domains shown)
VH: EVQLQQSGPELVKPGASMKISCKASGYSFTGYTMNWVKQSHGKTLEWIGLINPYNGVTSYNQKFKDKATLTVDKSSSTAYMELLSLTSEDSAIYYCARDYNYDYFDYWGQGTTLTVSS
VL: DIQMTQSPASLSASVGETVTITCRASEKIYSYLAWYQQKQGKSPQLLVYNAKTLAEGVPSRFSVSGSGTQFSLRINSLQPEDFGTYYCQHHFGSPRTFGGGTKLEIK
notes: Commercial parent monoclonal antibody, a whole IgG; also called G28-8 mAb; parent G28-8 antibody

Legend:
human CD180 [1] = target: T1, human CD180 (human, UniProt Q99467 24-661); experiment: flow cytometry on human B cells (figure legend)
T1 construct: whole, on cells; Native CD180 on primary human B cells; also called RP105; Bgp95
T1 sequence: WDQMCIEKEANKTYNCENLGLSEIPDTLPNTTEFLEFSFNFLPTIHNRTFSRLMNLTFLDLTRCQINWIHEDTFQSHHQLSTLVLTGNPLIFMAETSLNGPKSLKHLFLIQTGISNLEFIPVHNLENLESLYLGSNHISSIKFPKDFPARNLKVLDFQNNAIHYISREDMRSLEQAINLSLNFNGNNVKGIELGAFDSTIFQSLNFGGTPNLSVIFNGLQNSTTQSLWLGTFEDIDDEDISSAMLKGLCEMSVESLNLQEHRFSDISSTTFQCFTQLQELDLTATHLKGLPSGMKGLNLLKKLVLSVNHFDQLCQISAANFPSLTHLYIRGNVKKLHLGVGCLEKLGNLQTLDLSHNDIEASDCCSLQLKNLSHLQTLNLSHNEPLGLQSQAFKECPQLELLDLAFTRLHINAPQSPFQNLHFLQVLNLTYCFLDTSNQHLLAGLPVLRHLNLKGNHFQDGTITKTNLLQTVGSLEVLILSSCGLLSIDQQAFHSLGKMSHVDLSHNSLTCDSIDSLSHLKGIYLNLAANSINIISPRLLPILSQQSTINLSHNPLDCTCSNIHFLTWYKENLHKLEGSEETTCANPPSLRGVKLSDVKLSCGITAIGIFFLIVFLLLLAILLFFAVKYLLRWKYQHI

human CD180 [2] = target: T1, human CD180; experiment: flow cytometry competition on human B cells; 2.5 ug unlabelled G28-8 first, then 10 ug G28-8-PE

Binder | binding result (human CD180 [1]) | binding result (human CD180 [2])
B1 | binds | 
B2 |  | binds
